In US20210163582A1 (APRINOIA THERAPEUTICS, published 2021):
Where a chain is given by its changes, count along the chain named.

B1: Humanized mAb037 (antibody, V domains shown)
VH: QVQLVQSGAEVKKPGASVKVSCKASGYTFTDYNMDWVRQAHGQGLEWIGDINPNTGGTIYNQKFKGRATLTVDTSISTAYMELSRLRSDDTAVYYCAGEGPYYYGTTHPFAYWGQGTLVTVSS
VL: DVVMTQSPLSLPVTLGQPASISCKSSQSLLYSNGKTYLNWLLQRPGQSPRRLIYLVSKLDSGVPDRFSGSGSGTDFTLKISRVEAEDVGVYYCVQGTHFPQTFGGGTKLEIK
notes: also called humanized variant of mAb037
B2: mAb005 (antibody, V domains shown)
VH: EVQLVESGGGLVKPGGSLKLSCAASGFTFSDYGMHWVRQAPEKGLEWVAYSNSDSTTIYYADTVKGRFTISRDNAKSTLFLQMTSLRSEDTAMYYCGRSYYSNYVDYWGQGTTLTVSS
VL: DIVMTQIPLSLPVSLGDQASISCRSSQSLVHSNGNTYLHWYLQKPGQSPKLLIYKVSNRFSGVPDRFSGSGSGTDFTLKISRVEAEDLGVYFCFQSTHVPPTFGGGTKLEIK
notes: Mouse monoclonal from hybridoma; also called mouse mAb005; original mouse clone (of mAb005)
B3: Humanized mAb005 (antibody, V domains shown)
VH: EVQLVESGGGLVQPGGSLRLSCAASGFTFSDYGMHWVRQAPGKGLEWVAYSNSDSTTIYYADTVKGRFTISRDNAKNSLYLQMNSLRAEDTAVYYCGRSYYSNYVDYWGQGTLVTVSS
VL: B2 VL with I2V, I7S, S14T, D17Q, Q18P, K44R, K50R, L88V, G105Q
notes: also called humanized variant of mAb005
B4: mAb037 (antibody, V domains shown)
VH: EVQLQQSGPELVKPGASVKIPCKASGYTFTDYNMDWVKQSHGKSLEWIGDINPNTGGTIYNQKFKGKATLTVDKSSSTAYMELRSLTSEDTAVYYCAGEGPYYYGTTHPFAYWGQGTLVTVSA
VL: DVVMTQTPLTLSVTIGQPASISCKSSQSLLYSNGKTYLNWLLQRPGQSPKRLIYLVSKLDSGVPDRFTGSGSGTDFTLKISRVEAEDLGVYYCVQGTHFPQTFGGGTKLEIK
notes: Mouse monoclonal from hybridoma; also called mouse mAb037; original mouse clone (of mAb037)

What follows are binders tested against T1, Tau species in AD (Alzheimer's disease) brain lysate (human, UniProt P10636-8 2-441, limits assumed) (assay: dot-blot on spotted AD total brain lysate, antibody in 2-fold dilutions from 6×10^-8 M).
T1 construct: Endogenous Tau of a tissue lysate, not a defined construct; also called AD Tau protein; AD brain homogenate
T1 sequence (P10636 other isoform, or with tags, fused parts or gaps limits assumed): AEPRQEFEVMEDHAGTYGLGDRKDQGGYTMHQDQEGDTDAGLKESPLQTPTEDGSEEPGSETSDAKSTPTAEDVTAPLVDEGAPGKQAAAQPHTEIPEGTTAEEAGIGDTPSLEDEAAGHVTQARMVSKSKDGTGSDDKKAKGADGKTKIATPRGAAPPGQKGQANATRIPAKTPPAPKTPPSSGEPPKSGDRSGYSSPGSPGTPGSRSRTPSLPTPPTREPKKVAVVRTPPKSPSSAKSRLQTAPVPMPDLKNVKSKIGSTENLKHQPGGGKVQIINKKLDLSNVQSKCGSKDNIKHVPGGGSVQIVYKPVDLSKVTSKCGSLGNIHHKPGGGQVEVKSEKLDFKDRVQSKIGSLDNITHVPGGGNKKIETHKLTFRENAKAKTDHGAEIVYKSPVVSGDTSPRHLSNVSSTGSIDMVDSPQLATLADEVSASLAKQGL
Description: To facilitate the therapeutic potentials of mAb005 and mAb037, humanization of mAb005 and mAb037 was performed by grafting the complementary determining regions (CDRs) of Variable Heavy chain (VH) and Variable Light chain (VL) into a human IgG4 S228P backbone (no Fab-arm exchange mutant, Silva et al., 2015 JBC). Four point-mutations were introduced in the nearby residues surrounding the CDRs to conserve the functionality of the resulting variants. Dot-blot analysis was performed to determine the EC₅₀ of each variant, compared with the original mouse/chimeric clones as well as to visualize the specificity to AD Tau protein compared with ND Tau protein. […] Dot-blot experiments were performed by spotting of ND and AD total brain lysates in triplicate, and antibody solutions were diluted serially by a dilution factor of 2 from a maximum concentration of 6×10⁻⁸ M. Summary graphs denote Mean±SD of 3 independent experiments for mAb005 and Mean±SD of triplicated wells.

Compared with B1, B2 is 2.4-fold lower in EC50: 950 pM for the first, 400 pM for the second.

B3 and B4 are within 1.5-fold of each other in EC50: 430 pM for the first, 540 pM for the second.

What follows are binders tested against Tau in 6-month-old rTg4510 brain lysate (UniProt P10636-6 2-383, limits assumed) (assay: cell-based or functional assay).
Tau in 6-month-old rTg4510 brain lysate, sequence (P10636 other isoform, or with tags, fused parts or gaps limits assumed): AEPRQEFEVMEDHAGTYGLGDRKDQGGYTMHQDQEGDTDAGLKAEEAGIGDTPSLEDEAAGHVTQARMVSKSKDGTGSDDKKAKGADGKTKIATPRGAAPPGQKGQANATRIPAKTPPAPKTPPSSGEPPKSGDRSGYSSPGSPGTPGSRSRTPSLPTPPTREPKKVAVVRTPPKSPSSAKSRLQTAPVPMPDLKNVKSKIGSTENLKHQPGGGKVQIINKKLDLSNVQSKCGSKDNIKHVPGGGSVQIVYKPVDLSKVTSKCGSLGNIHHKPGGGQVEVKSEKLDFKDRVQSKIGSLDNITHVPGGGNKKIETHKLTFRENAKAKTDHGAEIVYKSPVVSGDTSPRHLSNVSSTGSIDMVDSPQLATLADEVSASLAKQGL

First: B2
Second: B4
The “EC50 of inhibition of Tau seeding (Tau spots per cell in Tau-LM reporter cells)” value of the first is 3.2-fold higher: 72200 pM for the first, 22900 pM for the second.
